Laboratory results reported in article PMC11406361, “Several orphan solute carriers functionally identified as organic cation transporters: Substrates specificity compared with known cation transporters” (The Journal of Biological Chemistry, 2024).

Columns and labels:
Test in all cases: cells, lysate or membranes
[1] = substrate: C[N+](C)(C)CCO; details: pH 7.4
[2] = substrate: COC(=O)[C@H]1[C@@H](OC(=O)c2ccccc2)C[C@@H]2CC[C@H]1N2C; details: pH 7.4
[3] = substrate: COc1ccc2c3c1O[C@H]1C(=O)CC[C@@]4(O)[C@@H](C2)N(C)CC[C@]314; details: pH 7.4
[4] = substrate: c1cnc2cc3c(cc2n1)[C@@H]1CNC[C@H]3C1; details: other: SLC35E2A, HEK293, net uptake over empty vector cells; pH 7.4
[5] = substrate: CCCN1CCCC[C@H]1C(=O)Nc1c(C)cccc1C; details: other: SLC35G3, HEK293, net uptake over empty vector cells; pH 7.4
[6] = substrate: CCCNC(C)C(=O)Nc1c(C)csc1C(=O)OC; details: other: SLC35G3, HEK293, net uptake over empty vector cells; pH 7.4
[7] = substrate: CCOC(=O)C1(c2ccccc2)CCN(C)CC1; details: other: SLC35G3, HEK293, net uptake over empty vector cells; pH 7.4
[8] = substrate: CNC(C)Cc1ccc2c(c1)OCO2; details: other: SLC35G3, HEK293, net uptake over empty vector cells; pH 7.4
[9] = substrate: Clc1cccc(Cl)c1N=C1NCCN1; details: other: SLC35G3, HEK293, net uptake over empty vector cells; pH 7.4
[10] = other: SLC35F5, HEK293, net uptake over empty vector cells
[11] = other: SLC35G4, HEK293, net uptake over empty vector cells
[12] = other: SLC35F3, HEK293, net uptake over empty vector cells
[13] = other: SLC35E4, HEK293, net uptake over empty vector cells
[14] = other: SLC35F4, HEK293, net uptake over empty vector cells
[15] = other: SLC35F2, HEK293, net uptake over empty vector cells
[16] = other: SLC44A1, HEK293, net uptake over empty vector cells

B1: SLC35F5 (Homo sapiens) (protein)
chain: MVPPRRHRGAGRPGVLSSSPPFRLRSAKFSGIALEDLRRALKTRLQMVCVFVMNRMNSQNSGFTQRRRMALGIVILLLVDVIWVASSELTSYVFTQYNKPFFSTFAKTSMFVLYLLGFIIWKPWRQQCTRGLRGKHAAFFADAEGYFAACTTDTTMNSSLSEPLYVPVKFHDLPSEKPESTNIDTEKTPKKSRVRFSNIMEIRQLPSSHALEAKLSRMSYPVKEQESILKTVGKLTATQVAKISFFFCFVWFLANLSYQEALSDTQVAIVNILSSTSGLFTLILAAVFPSNSGDRFTLSKLLAVILSIGGVVLVNLAGSEKPAGRDTVGSIWSLAGAMLYAVYIVMIKRKVDREDKLDIPMFFGFVGLFNLLLLWPGFFLLHYTGFEDFEFPNKVVLMCIIINGLIGTVLSEFLWLWGCFLTSSLIGTLALSLTIPLSIIADMCMQKVQFSWLFFAGAIPVFFSFFIVTLLCHYNNWDPVMVGIRRIFAFICRKHRIQRVPEDSEQCESLISMHSVSQEDGAS
Question: Which results are given for B1?
Answer: Km [1, 10]: 5.83 (±3.23) μM; Vmax [1, 10]: 3.48e-05 µmol/min/mg; Vmax/Km [1, 10]: 5.97 µL/min/mg

B2: SLC35E2A (Homo sapiens) (protein)
chain: MSSSVKTPALEELVPGSEEKPKGRSPLSWGSLFGHRSEKIVFAKSDGGTDENVLTVTITETTVIESDLGVWSSRALLYLTLWFFFSFCTLFLNKYILSLLGGEPSMLGAVQMLSTTVIGCVKTLVPCCLYQHKARLSYPPNFLMTMLFVGLMRFATVVLGLVSLKNVAVSFAETVKSSAPIFTVIMSRMILGEYTGRPSDREEREELQLQPGRGAAASDRRSPVPPSERHGVRPHGENLPGDFQVPQALHRVALSMALPCPMLPAS
Question: How did the Km [2] turn out when B2 was run?
Answer: 165 (±47.7) μM

Question: What about the Vmax [2] of the same protein?
Answer: 0.000683 µmol/min/mg

Question: And the Vmax/Km [2]?
Answer: 4.14 µL/min/mg

Question: What about the Km [3] of the same protein?
Answer: 92.0 (±31.0) μM

Question: And the Vmax [3]?
Answer: 0.000317 µmol/min/mg

Question: And the Vmax/Km [3]?
Answer: 3.44 µL/min/mg

Question: And the Km [4]?
Answer: 474 (±190) μM

Question: And the Vmax [4]?
Answer: 0.000847 µmol/min/mg

Question: What about the Vmax/Km [4] of the same protein?
Answer: 1.79 µL/min/mg

B3: SLC35G4 (Homo sapiens) (protein)
chain: MAGSHPYFNLPDSTHPSPPSTPPSLHWHQRCQPSDATNGLLVALLGGGLPAGFVGPLSRMAYQASNLPSLELVICRCLFHLPIALLLKLRGDPLLGPPDIRGRTCFCALLNVLNIGCAYSAVQVVPTGNAATVRKHSSTVCSAILTLCLESQVLSGYDWCGLLGSILGLIIIVGPGLWTLQEGTTGVYTGLGYVQAFLGGLALSLGLLVYRSLHFPSCLPTVAFLSGLVGLLGSVPGLFVLQSPVLPSDLLSWSCVGAVGILTLVSFTCVGYAVTKAHPALVCAVLHSEVVMALILQYFMLHETVAPSDIMGAGVVLGSIAIITARNLICERTGKVEE
Question: Which Km [1, 11] does the source give for B3 here?
Answer: 13.2 (±7.02) μM

Question: What about the Vmax [1, 11] of the same protein?
Answer: 0.000108 µmol/min/mg

Question: What about the Vmax/Km [1, 11] of the same protein?
Answer: 8.15 µL/min/mg

B4: SLC35F3 (Homo sapiens) (protein)
chain: MKKHSARVAPLSACNSPVLTLTKVEGEERPRDSPGPAEAQAPAGVEAGGRASRRCWTCSRAQLKKIFWGVAVVLCVCSSWAGSTQLAKLTFRKFDAPFTLTWFATNWNFLFFPLYYVGHVCKSTEKQSVKQRYRECCRFFGDNGLTLKVFFTKAAPFGVLWTLTNYLYLHAIKKINTTDVSVLFCCNKAFVFLLSWIVLRDRFMGVRIVAAILAIAGIVMMTYADGFHSHSVIGIALVVASASMSALYKVLFKLLLGSAKFGEAALFLSILGVFNILFITCIPIILYFTKVEYWSSFDDIPWGNLCGFSVLLLTFNIVLNFGIAVTYPTLMSLGIVLSIPVNAVIDHYTSQIVFNGVRVIAIIIIGLGFLLLLLPEEWDVWLIKLLTRLKVRKKEEPAEGAADLSSGPQSKNRRARPSFAR
Question: Which results are given for B4?
Answer: Km [1, 12]: 112 (±96.4) μM; Vmax [1, 12]: 0.000135 µmol/min/mg; Vmax/Km [1, 12]: 1.21 µL/min/mg

B5: SLC35E4 (Homo sapiens) (protein)
chain: MCRCPPEHHDGRMTSAEVGAAAGGAQAAGPPEWPPGSPQALRQPGRARVAMAALVWLLAGASMSSLNKWIFTVHGFGRPLLLSALHMLVAALACHRGARRPMPGGTRCRVLLLSLTFGTSMACGNVGLRAVPLDLAQLVTTTTPLFTLALSALLLGRRHHPLQLAAMGPLCLGAACSLAGEFRTPPTGCGFLLAATCLRGLKSVQQSALLQEERLDAVTLLYATSLPSFCLLAGAALVLEAGVAPPPTAGDSRLWACILLSCLLSVLYNLASFSLLALTSALTVHVLGNLTVVGNLILSRLLFGSRLSALSYVGIALTLSGMFLYHNCEFVASWAARRGLWRRDQPSKGL
Question: How did the Km [1, 13] turn out when B5 was run?
Answer: 245 (±331) μM

Question: What about the Vmax [1, 13] of the same protein?
Answer: 4.19e-05 µmol/min/mg

Question: And the Vmax/Km [1, 13]?
Answer: 0.17 µL/min/mg

B6: SLC35F4 (Homo sapiens) (protein)
chain: MDELLLDLFHKLTSGRQLAAGNGLCGISHKEQEVWKPGHNILVKMRKEDKSLVWLIHSTLARYTQVTNFLGTSRSSVTRCKPGANCPSSHSGISRQLSPLSVTEDSSAPILELQNQGSSGVCGHRVERQNRSADDGTQTHSENSSQENRIKARCLSCTSMVLKGIWGLLIILSVSSSWVGTTQIVKITYKNFYCPFFMTWFSTNWNIMFFPVYYSGHLATAQEKQSPMKKFRECSRIFGEDGLTLKLFLKRTAPFSILWTLTNYLYLLALKKLTATDVSALFCCNKAFVFLLSWIVLKDRFMGVRIVAAIMAITGIVMMAYADNFHADSIIGVAFAVGSASTSALYKVLFKMFLGSANFGEAAHFVSTLGFFNLIFISFTPVILYFTKVEHWSSFAALPWGCLCGMAGLWLAFNILVNVGVVLTYPILISIGTVLSVPGNAAVDLLKQEVIFNVVRLAATIIICIGFLLMLLPEEWDEITLRFINSLKEKKSEEHVDDVTDPSIHLRGRGRANGTVSIPLA
Question: B6 was tested. Which Km [1, 14] did it give?
Answer: 47.4 (±48.1) μM

Question: What about the Vmax [1, 14] of the same protein?
Answer: 6.28e-05 µmol/min/mg

Question: And the Vmax/Km [1, 14]?
Answer: 1.32 µL/min/mg

B7: SLC35F2 (Homo sapiens) (protein)
chain: MEADSPAGPGAPEPLAEGAAAEFSSLLRRIKGKLFTWNILKTIALGQMLSLCICGTAITSQYLAERYKVNTPMLQSFINYCLLFLIYTVMLAFRSGSDNLLVILKRKWWKYILLGLADVEANYVIVRAYQYTTLTSVQLLDCFGIPVLMALSWFILHARYRVIHFIAVAVCLLGVGTMVGADILAGREDNSGSDVLIGDILVLLGASLYAISNVCEEYIVKKLSRQEFLGMVGLFGTIISGIQLLIVEYKDIASIHWDWKIALLFVAFALCMFCLYSFMPLVIKVTSATSVNLGILTADLYSLFVGLFLFGYKFSGLYILSFTVIMVGFILYCSTPTRTAEPAESSVPPVTSIGIDNLGLKLEENLQETHSAVL
Question: How did the Km [2] turn out when B7 was run?
Answer: 161 (±99.5) μM

Question: What about the Vmax [2] of the same protein?
Answer: 0.000415 µmol/min/mg

Question: What about the Vmax/Km [2] of the same protein?
Answer: 2.58 µL/min/mg

Question: What about the Km [1, 15] of the same protein?
Answer: 32.6 (±14.9) μM

Question: What about the Vmax [1, 15] of the same protein?
Answer: 8.1e-05 µmol/min/mg

Question: And the Vmax/Km [1, 15]?
Answer: 2.48 µL/min/mg

B8: SLC35G3 (Homo sapiens) (protein)
chain: MAGSHPYFNQPDSTHPSPPSAPPSLRWYQRCQPSDATSGLLVALLGGGLPAGFVGPLSRMAYQASNLPSLELLIWRCLFHLPIALLLKLRGDPLLGTPDIRSRAFFCALLNILSIGCAYSAVQVVPAGNAATVRKGSSTVCSAVLTLCLESQGLSGYDWCGLLGCILGLIIIVGPGLWTLQEGTTGVYTALGYVEAFLGGLALSLRLLVYRSLHFPPCLPTVAFLSGLVGLLGSVPGLFVLQAPVLPSDLLSWSCVGAVGILALVSFTCVGYAVTKAHPALVCAVLHSEVVVALILQYYMLHETVAPSDIVAAGVVLGSIAIITAQNLSCERTGRVEE
Question: Which Km [5] does the source give for B8 here?
Answer: 151 (±60.7) μM

Question: What about the Vmax [5] of the same protein?
Answer: 0.000551 µmol/min/mg

Question: What about the Vmax/Km [5] of the same protein?
Answer: 3.64 µL/min/mg

Question: What about the Km [6] of the same protein?
Answer: 143 (±119) μM

Question: And the Vmax [6]?
Answer: 0.000291 µmol/min/mg

Question: What about the Vmax/Km [6] of the same protein?
Answer: 2.04 µL/min/mg

Question: What about the Km [7] of the same protein?
Answer: 57.7 (±44.9) μM

Question: And the Vmax [7]?
Answer: 0.000265 µmol/min/mg

Question: And the Vmax/Km [7]?
Answer: 4.6 µL/min/mg

Question: What about the Km [8] of the same protein?
Answer: 141 (±50.4) μM

Question: What about the Vmax [8] of the same protein?
Answer: 0.000606 µmol/min/mg

Question: What about the Vmax/Km [8] of the same protein?
Answer: 4.31 µL/min/mg

Question: And the Km [2]?
Answer: 466 (±117) μM

Question: What about the Vmax [2] of the same protein?
Answer: 0.000739 µmol/min/mg

Question: And the Vmax/Km [2]?
Answer: 1.59 µL/min/mg

Question: And the Km [9]?
Answer: 48.2 (±23.9) μM

Question: And the Vmax [9]?
Answer: 0.000234 µmol/min/mg

Question: And the Vmax/Km [9]?
Answer: 4.85 µL/min/mg

B9: SLC44A1 (Homo sapiens) (protein)
chain: MGCCSSASSAAQSSKREWKPLEDRSCTDIPWLLLFILFCIGMGFICGFSIATGAAARLVSGYDSYGNICGQKNTKLEAIPNSGMDHTQRKYVFFLDPCNLDLINRKIKSVALCVAACPRQELKTLSDVQKFAEINGSALCSYNLKPSEYTTSPKSSVLCPKLPVPASAPIPFFHRCAPVNISCYAKFAEALITFVSDNSVLHRLISGVMTSKEIILGLCLLSLVLSMILMVIIRYISRVLVWILTILVILGSLGGTGVLWWLYAKQRRSPKETVTPEQLQIAEDNLRALLIYAISATVFTVILFLIMLVMRKRVALTIALFHVAGKVFIHLPLLVFQPFWTFFALVLFWVYWIMTLLFLGTTGSPVQNEQGFVEFKISGPLQYMWWYHVVGLIWISEFILACQQMTVAGAVVTYYFTRDKRNLPFTPILASVNRLIRYHLGTVAKGSFIITLVKIPRMILMYIHSQLKGKENACARCVLKSCICCLWCLEKCLNYLNQNAYTATAINSTNFCTSAKDAFVILVENALRVATINTVGDFMLFLGKVLIVCSTGLAGIMLLNYQQDYTVWVLPLIIVCLFAFLVAHCFLSIYEMVVDVLFLCFAIDTKYNDGSPGREFYMDKVLMEFVENSRKAMKEAGKGGVADSRELKPMASGASSA
Question: With B9 as the protein, how does the Km [1, 16] read?
Answer: 28.9 (±18.5) μM

Question: What about the Vmax [1, 16] of the same protein?
Answer: 6.01e-05 µmol/min/mg

Question: What about the Vmax/Km [1, 16] of the same protein?
Answer: 2.08 µL/min/mg
